The target in assay [1] is recombinant human ACE2 protein (human) (UniProt Q9BYF1). As to the kind of experiment: SPR; Biacore T200; ACE2 or NRP1 amine-coupled on a CM5 chip (about 10,000 RU); tuftsin flowed at gradient concentrations; 25°C, 30 µl/min; 1×PBS, 0.05% Tween 20, 5% dimethyl sulfoxide, pH 7.4; steady state affinity model. Background: Surface plasmon resonance follows binding to a sensor surface in real time, without labels.

In assay [2] the target is recombinant human NRP1 protein (human) (UniProt O14786). The description is as above.

pKd: −log10 of the molar value.

recombinant human ACE2 protein (human), sequence (Q9BYF1 18-740): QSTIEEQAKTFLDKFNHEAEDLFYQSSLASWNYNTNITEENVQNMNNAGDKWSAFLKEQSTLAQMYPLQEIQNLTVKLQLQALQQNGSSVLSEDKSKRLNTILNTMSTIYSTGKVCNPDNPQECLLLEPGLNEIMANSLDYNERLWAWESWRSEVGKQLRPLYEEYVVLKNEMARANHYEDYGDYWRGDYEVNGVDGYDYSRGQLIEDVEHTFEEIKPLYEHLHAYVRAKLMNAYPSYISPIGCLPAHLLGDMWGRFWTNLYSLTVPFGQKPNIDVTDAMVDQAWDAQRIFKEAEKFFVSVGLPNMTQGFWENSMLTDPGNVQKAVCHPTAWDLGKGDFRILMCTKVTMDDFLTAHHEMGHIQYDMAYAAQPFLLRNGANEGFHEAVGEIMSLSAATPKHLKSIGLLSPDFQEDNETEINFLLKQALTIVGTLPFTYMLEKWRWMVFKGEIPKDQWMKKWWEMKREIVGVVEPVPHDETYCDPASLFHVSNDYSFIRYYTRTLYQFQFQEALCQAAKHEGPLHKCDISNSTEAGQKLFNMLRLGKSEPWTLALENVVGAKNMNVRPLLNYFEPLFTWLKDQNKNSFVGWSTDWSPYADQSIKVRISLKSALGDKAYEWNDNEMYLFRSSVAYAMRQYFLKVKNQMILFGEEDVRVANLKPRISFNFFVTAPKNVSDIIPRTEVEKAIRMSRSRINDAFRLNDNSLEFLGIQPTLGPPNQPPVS

For the substance tuftsin (peptide), the results for the pKd in assay [1] and in assay [2] were 3.34 and 4.97, respectively.

The pKd is −log10 of the Kd, conventionally taken in molar units.

For the origin of these results see publication PMC8984176, “Tuftsin: A Natural Molecule Against SARS-CoV-2 Infection” (Frontiers in Molecular Biosciences, 2022).
